Measured values taken from patent US6998124 (GlaxoSmithKline, dated 2006).

Columns and labels:
[1] = target: T1, soluble dimeric erythropoietin receptor (EpoRFc) (human, UniProt P19235 25-250); experiment: BIAcore, mAb captured on rabbit anti-mouse Fc surface, EpoRFc injected at 0.25-6 ug/ml; soluble dimeric EpoRFc
T1 construct: also called Epo-Rec-Fc; not shown: Fc part
T1 sequence (looked up): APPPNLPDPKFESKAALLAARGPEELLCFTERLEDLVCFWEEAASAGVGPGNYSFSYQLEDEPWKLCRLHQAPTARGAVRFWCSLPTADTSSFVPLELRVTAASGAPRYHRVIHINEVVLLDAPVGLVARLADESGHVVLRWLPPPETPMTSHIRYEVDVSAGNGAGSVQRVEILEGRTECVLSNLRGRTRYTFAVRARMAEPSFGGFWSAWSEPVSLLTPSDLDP
Experimental: (§1) EpoR or EpoRFc diluted in HBS buffer at 0.25–6 ug/ml was then injected for 120 s followed by buffer flow for 240 s and regeneration of the sensor chip surface with an injection of 15 ul 0.1 M phosphoric acid. BIAcore software was used for association and dissociation-phase analysis.

[2] = target: T2, human erythropoietin receptor on the cell surface (human, UniProt P19235 25-508); experiment: competition with 1 nM 125I-labeled Epo for binding to UT7-Epo cells, 5 hrs at 4 C, cell-bound radioactivity counted; blocked ligand: Epo
T2 construct: whole, on cells; also called wild type EpoR on UT7-Epo cells; cell surface erythropoietin receptors
T2 sequence (looked up): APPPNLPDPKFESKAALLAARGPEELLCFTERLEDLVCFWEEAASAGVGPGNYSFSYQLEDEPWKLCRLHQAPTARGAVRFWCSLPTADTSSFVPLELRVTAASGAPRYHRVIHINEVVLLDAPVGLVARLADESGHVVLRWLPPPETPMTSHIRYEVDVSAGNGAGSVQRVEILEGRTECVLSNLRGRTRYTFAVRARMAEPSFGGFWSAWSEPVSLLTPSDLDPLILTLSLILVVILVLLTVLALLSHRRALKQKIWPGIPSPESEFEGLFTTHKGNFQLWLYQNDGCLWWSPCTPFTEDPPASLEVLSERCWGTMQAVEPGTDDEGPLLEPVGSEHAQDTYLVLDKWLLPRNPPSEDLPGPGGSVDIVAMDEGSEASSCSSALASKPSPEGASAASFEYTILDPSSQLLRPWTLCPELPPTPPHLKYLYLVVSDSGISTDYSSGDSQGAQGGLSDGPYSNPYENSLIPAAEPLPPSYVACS
Experimental: Following 5 hrs incubation at 4° C., the cells were spun through horse serum, frozen, and the pellets clipped off and radioactivity counted. […] Hematocrit was measured following a single i.v. dose of Hz3G9 at 0.1, 0.5, 1 and 5 mg/kg into cynomolgus macaques.

[3] = target: T1, soluble dimeric erythropoietin receptor …; experiment: BIAcore, calculated from kass and kdiss; soluble dimeric EpoRFc
Experimental: as §1

B1: murine monoclonal antibody 3G9 (antibody, V domains shown)
VH: QVQLQQPGAELVKSGASVKLSCKASGSTFTSYWMHWVKQRPGRGLEWIGRIDPNSGGTKDNEKFKSKATLTVDKPSSTAYMQLSSLTSEDSAVYYCARETYYDSSFAYWGQGTLVTVSA
VL: DIVMTQSQKFMSTSVGDRVSVTCKASQNVGTNVAWYQQKPGQSPKALIYSASYRYSGVPDRFTGSGSGTDFTLTISNVQSEDLAEYFCQQYNSYPLTFGAGTKLELKR
modifications: amino terminus of the heavy chain blocked with pyroglutamic acid
notes: Mouse hybridoma antibody; also called 3G9 mAb; Mab 3G9
B1 was tested, and the koff [1] was 0.0019 s⁻¹, the kon [1] was 3e+06 M⁻¹ s⁻¹ and the “IC50 (read off the curve)” value [2] was ~1 ng/mL. The Kd [3] was 0.6 nM.
